Reference: patent US7019123
pKi: −log10 of the molar value.

Tests used:
bovine trypsin (bovine) = bovine trypsin (bovine) (UniProt P00760); assay: enzyme inhibition; trypsin 48.5 pM
human plasmin (human) = human plasmin (human) (UniProt P00747); assay: enzyme inhibition; human plasmin 50 pM
[1] = biological target: bovine pancreatic kallikrein (bovine); assay: enzyme inhibition; bovine pancreatic kallikrein 92.0 pM
[2] = biological target: bovine pancreatic kallikrein (bovine); assay: enzyme inhibition; comparison of Ki values with aprotinin
[3] = biological target: bovine pancreatic kallikrein (bovine); assay: enzyme inhibition, tight-binding fit; bovine pancreatic kallikrein 92 pM, PFR-AMC
[4] = biological target: human plasma kallikrein (human) (UniProt P03952); assay: enzyme inhibition; apparent Ki
Chain of human plasma kallikrein (human) (P03952 20-638 limits assumed): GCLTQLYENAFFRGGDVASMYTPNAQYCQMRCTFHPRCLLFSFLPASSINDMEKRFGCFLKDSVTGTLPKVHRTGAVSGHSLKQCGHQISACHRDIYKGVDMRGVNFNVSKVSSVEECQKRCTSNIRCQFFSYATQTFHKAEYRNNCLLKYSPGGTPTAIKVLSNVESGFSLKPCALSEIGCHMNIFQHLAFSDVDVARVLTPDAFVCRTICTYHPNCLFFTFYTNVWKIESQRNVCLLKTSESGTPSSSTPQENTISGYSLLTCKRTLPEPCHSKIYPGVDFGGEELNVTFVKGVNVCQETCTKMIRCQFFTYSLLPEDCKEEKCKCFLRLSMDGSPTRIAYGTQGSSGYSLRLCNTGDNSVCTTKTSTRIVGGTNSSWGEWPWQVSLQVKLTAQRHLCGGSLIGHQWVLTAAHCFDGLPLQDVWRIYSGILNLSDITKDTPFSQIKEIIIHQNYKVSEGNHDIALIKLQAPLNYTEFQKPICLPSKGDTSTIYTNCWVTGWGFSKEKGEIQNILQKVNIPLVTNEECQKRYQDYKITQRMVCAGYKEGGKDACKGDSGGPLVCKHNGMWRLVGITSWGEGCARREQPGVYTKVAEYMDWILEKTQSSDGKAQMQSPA

Chain of human plasmin (human) (P00747 97-810 limits assumed): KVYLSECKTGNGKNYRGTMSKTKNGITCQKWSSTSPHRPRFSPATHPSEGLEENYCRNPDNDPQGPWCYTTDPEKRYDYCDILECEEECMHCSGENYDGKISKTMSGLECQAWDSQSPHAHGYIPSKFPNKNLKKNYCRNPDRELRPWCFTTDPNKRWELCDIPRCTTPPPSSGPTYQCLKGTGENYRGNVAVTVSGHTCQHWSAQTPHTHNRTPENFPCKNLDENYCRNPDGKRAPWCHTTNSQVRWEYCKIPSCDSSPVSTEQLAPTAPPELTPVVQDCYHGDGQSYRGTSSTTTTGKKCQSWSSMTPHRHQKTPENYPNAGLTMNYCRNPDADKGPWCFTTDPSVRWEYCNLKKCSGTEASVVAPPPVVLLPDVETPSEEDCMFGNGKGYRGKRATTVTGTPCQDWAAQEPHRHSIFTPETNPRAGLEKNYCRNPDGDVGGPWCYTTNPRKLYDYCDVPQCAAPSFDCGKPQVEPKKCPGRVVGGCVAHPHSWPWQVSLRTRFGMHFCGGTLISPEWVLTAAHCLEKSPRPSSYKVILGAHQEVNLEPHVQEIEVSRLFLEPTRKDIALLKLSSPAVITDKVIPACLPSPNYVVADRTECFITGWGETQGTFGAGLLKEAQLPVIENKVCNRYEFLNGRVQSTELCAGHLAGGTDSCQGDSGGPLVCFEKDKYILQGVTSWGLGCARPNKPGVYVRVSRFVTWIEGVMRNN
Chain of bovine trypsin (bovine) (P00760 24-246): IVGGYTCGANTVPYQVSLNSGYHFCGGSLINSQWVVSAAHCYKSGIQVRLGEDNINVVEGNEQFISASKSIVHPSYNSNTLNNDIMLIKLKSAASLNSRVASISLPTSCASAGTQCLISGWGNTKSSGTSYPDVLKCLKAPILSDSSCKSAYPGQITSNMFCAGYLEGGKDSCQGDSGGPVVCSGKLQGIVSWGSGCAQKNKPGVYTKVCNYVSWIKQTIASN

In the case of “native human placental bikunin isolated from placenta (from UniProt O43291 28-203)”, the pKi (bovine trypsin (bovine)) was 9.89 and the pKi (human plasmin (human)) was 8.72.
For “synthetic placental bikunin (102-159) (from UniProt O43291 129-186)”, the pKi [1] was 9.40, the fold higher Ki than aprotinin [2] was 20 fold and the pKi [3] was 9.40.
“synthetic placental bikunin (7-64), first preparation (from UniProt O43291 34-91)” was tested, and the pKi [1] was 9.40.
“recombinant placental bikunin (102-159) expressed in yeast SC101 (from UniProt O43291 129-186)” gave a pKi [4] of 9.46.
